Target: α4 laminin fragment G^919-1207 (SEQ ID NO:13) (human), Q16363
Experiment: solid-phase saturation binding ELISA: coated G^919-1207 at varying concentrations, soluble integrin at 5 ng/µl, detected with LM609

Chain of α4 laminin fragment G^919-1207 (SEQ ID NO:13) (human), Q16363 (Q16363 926-1214 G1117S/P1119X limits assumed): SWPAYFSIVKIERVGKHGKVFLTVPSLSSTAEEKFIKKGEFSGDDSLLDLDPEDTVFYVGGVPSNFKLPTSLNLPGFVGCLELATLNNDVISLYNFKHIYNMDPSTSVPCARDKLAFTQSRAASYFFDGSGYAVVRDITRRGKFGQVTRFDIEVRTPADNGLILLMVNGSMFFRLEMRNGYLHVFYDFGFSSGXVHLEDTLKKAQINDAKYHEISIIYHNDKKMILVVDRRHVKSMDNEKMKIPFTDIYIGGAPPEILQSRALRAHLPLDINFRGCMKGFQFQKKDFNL

- Kd: 4 nM
B1: soluble αvβ3 integrin heterodimer (Chemicon International), P06756 31-992; P05106 27-718 (receptor)
chain 1: FNLDVDSPAEYSGPEGSYFGFAVDFFVPSASSRMFLLVGAPKANTTQPGIVEGGQVLKCDWSSTRRCQPIEFDATGNRDYAKDDPLEFKSHQWFGASVRSKQDKILACAPLYHWRTEMKQEREPVGTCFLQDGTKTVEYAPCRSQDIDADGQGFCQGGFSIDFTKADRVLLGGPGSFYWQGQLISDQVAEIVSKYDPNVYSIKYNNQLATRTAQAIFDDSYLGYSVAVGDFNGDGIDDFVSGVPRAARTLGMVYIYDGKNMSSLYNFTGEQMAAYFGFSVAATDINGDDYADVFIGAPLFMDRGSDGKLQEVGQVSVSLQRASGDFQTTKLNGFEVFARFGSAIAPLGDLDQDGFNDIAIAAPYGGEDKKGIVYIFNGRSTGLNAVPSQILEGQWAARSMPPSFGYSMKGATDIDKNGYPDLIVGAFGVDRAILYRARPVITVNAGLEVYPSILNQDNKTCSLPGTALKVSCFNVRFCLKADGKGVLPRKLNFQVELLLDKLKQKGAIRRALFLYSRSPSHSKNMTISRGGLMQCEELIAYLRDESEFRDKLTPITIFMEYRLDYRTAADTTGLQPILNQFTPANISRQAHILLDCGEDNVCKPKLEVSVDSDQKKIYIGDDNPLTLIVKAQNQGEGAYEAELIVSIPLQADFIGVVRNNEALARLSCAFKTENQTRQVVCDLGNPMKAGTQLLAGLRFSVHQQSEMDTSVKFDLQIQSSNLFDKVSPVVSHKVDLAVLAAVEIRGVSSPDHVFLPIPNWEHKENPETEEDVGPVVQHIYELRNNGPSSFSKAMLHLQWPYKYNNNTLLYILHYDIDGPMNCTSDMEINPLRIKISSLQTTEKNDTVAGQGERDHLITKRDLALSEGDIHTLGCGVAQCLKIVCQVGRLDRGKSAILYVKSLLWTETFMNKENQNHSYSLKSSASFNVIEFPYKNLPIEDITNSTLVTTNVTWGIQPAPMPV
chain 2: GPNICTTRGVSSCQQCLAVSPMCAWCSDEALPLGSPRCDLKENLLKDNCAPESIEFPVSEARVLEDRPLSDKGSGDSSQVTQVSPQRIALRLRPDDSKNFSIQVRQVEDYPVDIYYLMDLSYSMKDDLWSIQNLGTKLATQMRKLTSNLRIGFGAFVDKPVSPYMYISPPEALENPCYDMKTTCLPMFGYKHVLTLTDQVTRFNEEVKKQSVSRNRDAPEGGFDAIMQATVCDEKIGWRNDASHLLVFTTDAKTHIALDGRLAGIVQPNDGQCHVGSDNHYSASTTMDYPSLGLMTEKLSQKNINLIFAVTENVVNLYQNYSELIPGTTVGVLSMDSSNVLQLIVDAYGKIRSKVELEVRDLPEELSLSFNATCLNNEVIPGLKSCMGLKIGDTVSFSIEAKVRGCPQEKEKSFTIKPVGFKDSLIVQVTFDCDCACQAQAEPNSHRCNNGNGTFECGVCRCGPGWLGSQCECSEEDYRPSQQDECSPREGQPVCSQRGECLCGQCVCHSSDFGKITGKYCECDDFSCVRYKGEMCSGHGQCSCGDCLCDSDWTGYYCNCTTRTDTCMSSNGLLCSGRGKCECGSCVCIQPGSYGDTCEKCPTCPDACTFKKECVECKKFDRGALHDENTCNRYCRDEIESVKELKDTGKDAVNCTYKNEDDCVVRFQYYEDSSGKSILYVVEEPECPKGPD
